Substitutions are numbered along the chain they refer to. Numbers in names are those of the source. Where “and” joins values, the source holds several entries; their conditions need not be identical. Equal entries are not always repeated. One block for each binder: values may come before it.
Legend:
[1] = target: T1, canine FcRn (UniProtKB-E2ROL6 [FcRn] and UniProtKB-E2RN10 [canine beta-2-microglobulin]) (canine); test: SPR Biacore 8K, pH 5.5, Fc captured on BSA via SASA tag, FcRn 400 nM
T1 construct: Soluble analyte injected in SPR

[2] = target: T1, canine FcRn (UniProtKB-E2ROL6 [FcRn] …); test: SPR Biacore 8K, pH 5.5, Fc captured on BSA via SASA tag, FcRn 200 nM
[3] = target: T1, canine FcRn (UniProtKB-E2ROL6 [FcRn] …); test: as above; remark: listed apart in the source
[4] = target: T1, canine FcRn (UniProtKB-E2ROL6 [FcRn] …); test: SPR Biacore 8K, pH 5.5, Fc captured on BSA via SASA tag, FcRn 100-800 nM
[5] = target: T1, canine FcRn (UniProtKB-E2ROL6 [FcRn] …); test: SPR Biacore 8K, pH 5.5, Fc captured on BSA via SASA tag, FcRn 200 nM; remark: listed apart in the source
[6] = target: T1, canine FcRn (UniProtKB-E2ROL6 [FcRn] …); test: as above; remark: listed apart in the source
[7] = target: T1, canine FcRn (UniProtKB-E2ROL6 [FcRn] …); test: as above; remark: listed apart in the source
[8] = target: T1, canine FcRn (UniProtKB-E2ROL6 [FcRn] …); test: as above; remark: listed apart in the source
[9] = target: T1, canine FcRn (UniProtKB-E2ROL6 [FcRn] …); test: as above; remark: listed apart in the source
[10] = target: T1, canine FcRn (UniProtKB-E2ROL6 [FcRn] …); test: as above; remark: listed apart in the source

Kd [1]: 618 nM and 747 nM
koff [1]: 0.369 s⁻¹ and 0.18 s⁻¹
kon [1]: 598000 M⁻¹ s⁻¹ and 241000 M⁻¹ s⁻¹
Kd [2]: 1320 nM and 1570 nM
koff [2]: 0.223 s⁻¹ and 0.239 s⁻¹
kon [2]: 168000 M⁻¹ s⁻¹ and 152000 M⁻¹ s⁻¹
B1: canine IgG.B Fc (CH2-CH3) variant E380A (Fc fusion)
chain: APEMLGGPSVFIFPPKPKDTLLIARTPEVTCVVVDLDPEDPEVQISWFVDGKQMQTAKTQPREEQFNGTYRVVSVLPIGHQDWLKGKQFTCKVNNKALPSPIERTISKARGQAHQPSVYVLPPSREELSKNTVSLTCLIKDFFPPDIDVAWQSNGQQEPESKYRTTPPQLDEDGSYFLYSKLSVDKSRWQRGDTFICAVMHEALHNHYTQESLSHSPGK

Kd [3]: 98.7 nM and 114 nM
koff [3]: 0.0397 s⁻¹ and 0.041 s⁻¹
kon [3]: 402000 M⁻¹ s⁻¹ and 358000 M⁻¹ s⁻¹
Kd [4]: 173 nM
koff [4]: 0.0476 s⁻¹
kon [4]: 275000 M⁻¹ s⁻¹
B2: canine IgG.B Fc (CH2-CH3) variant L252Y (Fc fusion)
chain: B1 chain with L22Y, A150E

Kd [5]: 372 nM and 439 nM
koff [5]: 0.566 s⁻¹ and 0.696 s⁻¹
kon [5]: 1.52e+06 M⁻¹ s⁻¹ and 1.59e+06 M⁻¹ s⁻¹
B3: canine IgG.B Fc (CH2-CH3) variant Q311V (Fc fusion)
chain: B1 chain with Q81V, A150E

Kd [6]: 693 nM and 873 nM
koff [6]: 0.159 s⁻¹ and 0.16 s⁻¹
kon [6]: 229000 M⁻¹ s⁻¹ and 184000 M⁻¹ s⁻¹
B4: canine IgG.B Fc (CH2-CH3) variant D378V (Fc fusion)
chain: B1 chain with D148V, A150E

Kd [7]: 40.4 nM and 75.7 nM
Kd [4]: 101 nM
koff [4]: 0.045 s⁻¹
kon [4]: 446000 M⁻¹ s⁻¹
B5: canine IgG.B Fc (CH2-CH3) variant N434W (Fc fusion)
chain: B1 chain with A150E, N206W

Kd [8]: 635 nM and 434 nM and 637 nM and 718 nM
koff [8]: 0.239 s⁻¹ and 0.242 s⁻¹ and 0.132 s⁻¹ and 0.145 s⁻¹
kon [8]: 377000 M⁻¹ s⁻¹ and 558000 M⁻¹ s⁻¹ and 207000 M⁻¹ s⁻¹ and 202000 M⁻¹ s⁻¹
B6: canine IgG.B Fc (CH2-CH3) variant G309P (Fc fusion)
chain: B1 chain with G79P, A150E

Kd [9]: 2590 nM and 2840 nM
koff [9]: 0.258 s⁻¹ and 0.268 s⁻¹
kon [9]: 99600 M⁻¹ s⁻¹ and 94300 M⁻¹ s⁻¹
B7: canine IgG.B Fc (CH2-CH3) variant T250Q (Fc fusion)
chain: B1 chain with T20Q, A150E

Kd [9]: 2480 nM and 1660 nM
koff [9]: 0.284 s⁻¹ and 0.287 s⁻¹
kon [9]: 114000 M⁻¹ s⁻¹ and 172000 M⁻¹ s⁻¹
B8: canine IgG.B Fc (CH2-CH3) variant T250E (Fc fusion)
chain: B1 chain with T20E, A150E

Kd [3]: 869 nM and 774 nM
koff [3]: 0.168 s⁻¹ and 0.169 s⁻¹
kon [3]: 193000 M⁻¹ s⁻¹ and 218000 M⁻¹ s⁻¹
B9: canine IgG.B Fc (CH2-CH3) variant L252M (Fc fusion)
chain: B1 chain with L22M, A150E

Kd [10]: 2290 nM and 1340 nM
koff [10]: 0.375 s⁻¹ and 0.433 s⁻¹
kon [10]: 163000 M⁻¹ s⁻¹ and 323000 M⁻¹ s⁻¹
B10: canine IgG.B Fc (CH2-CH3) variant A254T (Fc fusion)
chain: B1 chain with A24T, A150E

Kd [7]: 107 nM and 159 nM
koff [7]: 0.0524 s⁻¹ and 0.0633 s⁻¹
kon [7]: 488000 M⁻¹ s⁻¹ and 399000 M⁻¹ s⁻¹
Kd [4]: 182 nM
koff [4]: 0.0801 s⁻¹
kon [4]: 440000 M⁻¹ s⁻¹
B11: canine IgG.B Fc (CH2-CH3) variant N434R (Fc fusion)
chain: B1 chain with A150E, N206R

Reference: patent US20200216536A1 (published 2020)
